The results in this text go back to US20060286636A1.

Assay [1] concerns the target rat Neuropilin-1/Fc chimeric receptor (rat) (UniProt Q9QWJ9). Briefly: competition plate binding assay, cold competitor against 125I-VEGF165 on immobilized rat neuropilin-1/Fc, without heparin.
In assay [2] the target is mouse VEGFR-1/Fc chimeric receptor (mouse) (UniProt P35969). Briefly: competition plate binding assay: cold competitor against 125I-VEGF165 on immobilized VEGFR-1 (Flt-1)/Fc, scintillation counting.
Assay [3] addresses mouse VEGFR-2/Fc chimeric receptor (mouse) (UniProt P35918). Briefly: competition plate binding assay: cold competitor against 125I-VEGF165 on immobilized VEGFR-2 (KDR)/Fc, scintillation counting.

Chain of mouse VEGFR-1/Fc chimeric receptor (mouse) (P35969 23-759, stated change not applied): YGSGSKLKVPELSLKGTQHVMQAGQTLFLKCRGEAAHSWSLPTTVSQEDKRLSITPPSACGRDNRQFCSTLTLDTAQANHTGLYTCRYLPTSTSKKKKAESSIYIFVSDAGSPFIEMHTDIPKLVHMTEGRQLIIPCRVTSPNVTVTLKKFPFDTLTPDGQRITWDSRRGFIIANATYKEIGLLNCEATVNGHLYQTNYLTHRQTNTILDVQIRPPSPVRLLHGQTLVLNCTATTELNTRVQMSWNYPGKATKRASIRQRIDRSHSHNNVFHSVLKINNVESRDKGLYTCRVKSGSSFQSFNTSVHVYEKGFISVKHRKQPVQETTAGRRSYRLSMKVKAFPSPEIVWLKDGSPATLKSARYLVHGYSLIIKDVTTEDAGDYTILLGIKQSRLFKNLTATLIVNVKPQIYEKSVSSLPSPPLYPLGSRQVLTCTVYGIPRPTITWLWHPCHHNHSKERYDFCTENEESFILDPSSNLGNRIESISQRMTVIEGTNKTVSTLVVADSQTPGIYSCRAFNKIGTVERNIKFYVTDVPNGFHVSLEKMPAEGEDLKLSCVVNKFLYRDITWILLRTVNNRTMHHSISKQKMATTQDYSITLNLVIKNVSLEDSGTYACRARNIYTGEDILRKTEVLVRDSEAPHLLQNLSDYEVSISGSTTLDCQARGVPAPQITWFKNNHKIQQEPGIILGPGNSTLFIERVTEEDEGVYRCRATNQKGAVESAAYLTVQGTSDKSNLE
Chain of mouse VEGFR-2/Fc chimeric receptor (mouse) (P35918 20-762, stated change not applied): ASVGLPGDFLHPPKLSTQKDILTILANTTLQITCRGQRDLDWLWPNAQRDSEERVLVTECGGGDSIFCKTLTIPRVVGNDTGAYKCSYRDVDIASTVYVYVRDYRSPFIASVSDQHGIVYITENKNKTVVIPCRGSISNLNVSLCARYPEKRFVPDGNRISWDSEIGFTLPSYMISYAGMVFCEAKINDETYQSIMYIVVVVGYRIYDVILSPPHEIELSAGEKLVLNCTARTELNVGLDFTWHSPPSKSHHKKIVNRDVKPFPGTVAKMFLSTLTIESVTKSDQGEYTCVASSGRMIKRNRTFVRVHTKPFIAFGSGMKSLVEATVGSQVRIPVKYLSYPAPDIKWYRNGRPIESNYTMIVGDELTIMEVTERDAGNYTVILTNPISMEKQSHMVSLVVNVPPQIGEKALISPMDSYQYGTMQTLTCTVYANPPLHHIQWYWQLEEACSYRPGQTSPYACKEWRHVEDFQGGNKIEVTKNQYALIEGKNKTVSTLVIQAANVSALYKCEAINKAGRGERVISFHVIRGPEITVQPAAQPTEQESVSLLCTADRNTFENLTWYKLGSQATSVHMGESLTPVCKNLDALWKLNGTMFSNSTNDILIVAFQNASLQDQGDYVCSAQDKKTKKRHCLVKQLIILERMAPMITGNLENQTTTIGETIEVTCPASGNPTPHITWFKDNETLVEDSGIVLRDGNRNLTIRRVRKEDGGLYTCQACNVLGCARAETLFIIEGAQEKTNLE
Chain of rat Neuropilin-1/Fc chimeric receptor (rat) (Q9QWJ9 22-854, stated change not applied): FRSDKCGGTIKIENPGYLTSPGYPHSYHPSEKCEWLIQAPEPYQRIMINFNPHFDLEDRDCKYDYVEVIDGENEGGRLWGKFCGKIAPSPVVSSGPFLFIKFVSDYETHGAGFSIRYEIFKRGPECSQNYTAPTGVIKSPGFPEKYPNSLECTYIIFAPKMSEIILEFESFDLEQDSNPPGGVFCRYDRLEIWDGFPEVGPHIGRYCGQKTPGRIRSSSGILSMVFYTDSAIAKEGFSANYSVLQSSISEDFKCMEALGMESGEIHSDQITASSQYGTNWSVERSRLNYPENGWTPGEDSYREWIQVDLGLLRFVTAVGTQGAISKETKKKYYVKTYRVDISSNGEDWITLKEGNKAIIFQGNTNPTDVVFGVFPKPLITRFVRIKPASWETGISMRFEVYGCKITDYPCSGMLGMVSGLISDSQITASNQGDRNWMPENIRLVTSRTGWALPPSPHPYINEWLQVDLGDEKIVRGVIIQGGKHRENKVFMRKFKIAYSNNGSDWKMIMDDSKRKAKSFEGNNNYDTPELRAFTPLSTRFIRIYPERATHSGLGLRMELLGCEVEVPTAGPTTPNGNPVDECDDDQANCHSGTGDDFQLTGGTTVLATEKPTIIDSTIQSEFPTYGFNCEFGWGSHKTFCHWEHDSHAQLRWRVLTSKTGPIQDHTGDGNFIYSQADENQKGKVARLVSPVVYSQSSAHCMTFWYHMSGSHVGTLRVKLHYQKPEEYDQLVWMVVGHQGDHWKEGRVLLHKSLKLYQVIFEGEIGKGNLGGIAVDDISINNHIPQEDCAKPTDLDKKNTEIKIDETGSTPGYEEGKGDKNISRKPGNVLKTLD

In assay [1], “VEGF164 mutant R13A/R14A/R46A/R49A (from UniProt Q00731 27-190) (ligand)” yielded a fold reduction of binding affinity compared to VEGF164 of 115 fold.
For “VEGF164 double mutant R14A/R49A (from UniProt P15692 207-395) (ligand)”, the values for the IC50 (read off the curve) in assay [2] and in assay [3] were 0.09 nM and 0.08 nM, respectively.
Turning to “VEGF164 triple mutant R13A/R14A/R49A (from UniProt P15692 207-395) (ligand)”, the IC50 (read off the curve) in assay [2] came to 0.2 nM; in assay [3], 0.08 nM.
